Results as given in publication PMC5642495, “Characterization of a novel androgen receptor (AR) coregulator RIPK1 and related chemicals that suppress AR-mediated prostate cancer growth via peptide and chemical screening” (Oncotarget, 2017).
Positions count from the first letter of the chain named. Ends that are not written are not given here.

Key:
wt-AR = target: T1, wt-AR (Homo sapiens, UniProt P10275); assay: mammalian two-hybrid (MM2H) assay, peptide interaction with wt-AR; assay type: cell-based; settings: PC-3 cells, Gal-4 = 1; for wt-AR DHT, peptide-AR interaction in MM2H assay: DHT = 10 nM
T1 construct: expressed in transfected cells; host or cells: PC-3
T1 sequence (P10275 1-920): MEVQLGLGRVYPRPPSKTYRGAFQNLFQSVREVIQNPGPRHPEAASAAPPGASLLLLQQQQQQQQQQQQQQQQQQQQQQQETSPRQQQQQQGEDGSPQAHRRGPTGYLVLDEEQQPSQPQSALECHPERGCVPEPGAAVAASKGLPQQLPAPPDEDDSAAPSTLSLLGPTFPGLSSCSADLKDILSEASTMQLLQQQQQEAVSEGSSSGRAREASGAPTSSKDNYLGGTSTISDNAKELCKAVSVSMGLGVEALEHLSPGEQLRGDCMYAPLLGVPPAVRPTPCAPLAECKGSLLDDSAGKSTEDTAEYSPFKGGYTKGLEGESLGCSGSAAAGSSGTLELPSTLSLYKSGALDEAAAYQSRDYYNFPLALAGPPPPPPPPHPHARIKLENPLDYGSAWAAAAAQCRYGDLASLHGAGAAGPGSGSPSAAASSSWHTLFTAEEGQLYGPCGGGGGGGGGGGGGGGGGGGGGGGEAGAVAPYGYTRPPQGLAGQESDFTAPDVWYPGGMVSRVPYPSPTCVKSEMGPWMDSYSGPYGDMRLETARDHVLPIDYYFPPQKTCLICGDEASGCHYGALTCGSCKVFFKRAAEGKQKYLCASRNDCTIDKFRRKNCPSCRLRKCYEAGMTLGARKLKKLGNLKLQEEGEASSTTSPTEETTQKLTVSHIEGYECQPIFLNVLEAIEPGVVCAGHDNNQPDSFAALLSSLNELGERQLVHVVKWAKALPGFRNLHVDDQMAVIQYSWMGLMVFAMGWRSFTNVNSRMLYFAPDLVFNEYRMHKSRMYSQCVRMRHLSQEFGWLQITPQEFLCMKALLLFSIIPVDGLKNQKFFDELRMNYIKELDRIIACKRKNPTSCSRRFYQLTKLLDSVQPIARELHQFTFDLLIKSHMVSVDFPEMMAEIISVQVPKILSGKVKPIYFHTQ
From the text: (§1) Using the phage display technique, we observed enrichment of FxxFY motif-containing peptides in CDX-W741L AR LBD screening. Peptide-AR interactions were further validated with the mammalian two-hybrid assay. […] The majority of these peptides additionally interacted with W741L-AR in the presence of bicalutamide. Protein database searches led to the identification of receptor-interacting protein kinase-1 (RIPK1) as a FxxFY motif-containing protein (^285FRPFY^289). RIPK1 is a kinase that plays a crucial role in inflammation and cell death. We hypothesized that RIPK1 is an AR-interacting candidate protein and the FxxFY motif is involved in mediating interactions with AR. To examine this theory, we tested the short FxxFY-containing peptide in a mammalian two-hybrid assay. […] In interacting domain mapping, the FxxFY motif of RIPK1 influenced binding to AR in the GST pull-down assay, mediating AR interactions predominantly through DBD-LBD, as depicted in Figure 1B. […] RIPK1 contains an amino-terminal kinase domain, an intermediate domain and a carboxy-terminal death domain [17]. […] We further examined tissue expression of RIPK1 in the prostate gland via immunohistochemical staining. As shown in Figure 1E and 1F, RIPK1 was enriched in benign prostate hyperplasia and non-tumor areas, but not the tumor area. In view of the collective data, we propose that RIPK1 is a bona fide AR coregulator.
(§2) The assay procedures were performed as described previously. The PC-3 cell line was used for the mammalian two-hybrid and reporter gene assays.

W741L-AR = target: T2, W741L-AR (Homo sapiens, UniProt P10275, W742L); assay: mammalian two-hybrid (MM2H) assay, peptide interaction with W741L-AR; assay type: cell-based; settings: PC-3 cells, Gal-4 = 1; for W741L-AR CDX, peptide-AR interaction in MM2H assay: CDX = 10 µM
T2 construct: expressed in transfected cells; host or cells: PC-3
T2 sequence (P10275 1-920 W742L): T1 sequence (P10275 1-920) with W742L
From the text: as §1, §2

Substance	wt-AR DHT, peptide-AR interaction in MM2H assay (wt-AR)	wt-AR Ethanol, peptide-AR interaction in MM2H assay (wt-AR)	W741L-AR CDX, peptide-AR interaction in MM2H assay (W741L-AR)	W741L-AR Ethanol, peptide-AR interaction in MM2H assay (W741L-AR)
#3-18: positive control peptide NTNA-FSRLF-YPS (NTNAFSRLFYPS; also: fused to Gal4 DNA-binding domain, end not given here) [reference compound]	590	10	128	9
C1-FY: phage display screened peptide SYT-FNQFY-YSTA (SYTFNQFYYSTA; also: fused to Gal4 DNA-binding domain, end not given here)	680	19	511	8
C4-FY: phage display screened peptide SPL-FSSFY-HART (SPLFSSFYHART; also: fused to Gal4 DNA-binding domain, end not given here)	340	4	114	1
C8-FY: phage display screened peptide GD-FKSFY-LATTW (GDFKSFYLATTW; also: fused to Gal4 DNA-binding domain, end not given here)	484	17	86	2
C315-FY: phage display screened peptide APSLNR-FATFY-H (APSLNRFATFYH; also: fused to Gal4 DNA-binding domain, end not given here)	6	1	2	1
C411-FY: phage display screened peptide NDTPVK-FAHFY-H (NDTPVKFAHFYH; also: fused to Gal4 DNA-binding domain, end not given here)	3	7	3	2
C412-FY: phage display screened peptide APSDTY-FQRFY-R (APSDTYFQRFYR; also: fused to Gal4 DNA-binding domain, end not given here)	6	12	2	1
C414-FY: phage display screened peptide NPSSM-FEKFY-LR (NPSSMFEKFYLR; also: fused to Gal4 DNA-binding domain, end not given here)	2,653	10	532	2
CA9-FY: phage display screened peptide SL-FTSFY-TGSGS (SLFTSFYTGSGS; also: fused to Gal4 DNA-binding domain, end not given here)	1,517	20	190	5
CA-10-FY: phage display screened peptide EHSM-FHSFY-VQG (EHSMFHSFYVQG; also: fused to Gal4 DNA-binding domain, end not given here)	277	12	14	4
CON-1: negative control peptide MYKP-HNHHQ-TSS (MYKPHNHHQTSS; also: fused to Gal4 DNA-binding domain (not in chain)) [reference compound]	1	1	1	1
RIP-p: short peptide of novel AR coregulator candidate RIPK1, GIEEK-FRPFY-LSQLE (GIEEKFRPFYLSQLE; also: fused to Gal4 DNA-binding domain (not in chain))	159	2	554	12
